Target: pV2α-Tys, tyrosine-sulfated 18-mer V2 mimetic peptide (aa. 168-185 of HIV-1 BaL gp120) (HIV-1 (isolate BaL))
Assay: SPR

Going from “BG505 SOSIP.664 trimer pre-treated with the CD4 mimic CD4-M48U (from UniProt Q2N0S6 1-860; Q2N0S6 1-860) (complex)” to “gp120 (BaL) pre-complexed with the CD4 mimic CD4-M48U”, the Kd falls from 161 nM to 69.1 nM (2.3-fold).

“recombinant monomeric gp120 (HIV-1 strain BaL) (natural protein)” showed a Kd of 79.1 nM.

“BG505 SOSIP.664 trimer pre-treated with the CD4 mimic CD4-M48U (from UniProt Q2N0S6 1-860; Q2N0S6 1-860) (complex)” and “gp120 (BaL) pre-complexed with the CD4 mimic CD4-M48U” are within 1.5-fold of each other in koff: 0.005 s⁻¹ for the first, 0.00334 s⁻¹ for the second.

“recombinant monomeric gp120 (HIV-1 strain BaL) (natural protein)” was tested, and the koff was 0.00189 s⁻¹.

Compared with “BG505 SOSIP.664 trimer pre-treated with the CD4 mimic CD4-M48U (from UniProt Q2N0S6 1-860; Q2N0S6 1-860) (complex)”, “gp120 (BaL) pre-complexed with the CD4 mimic CD4-M48U” is 1.6-fold higher in kon: 31000 M⁻¹ s⁻¹ for the first, 48300 M⁻¹ s⁻¹ for the second.

“recombinant monomeric gp120 (HIV-1 strain BaL) (natural protein)” was tested, and the kon was 23900 M⁻¹ s⁻¹.

From article PMC5006643
